Consider two substances from patent publication US5663067.

The test system of data set [1] is T1, SapI restriction endonuclease (recombinant) (Saccharopolyspora sp.).
T1 sequence: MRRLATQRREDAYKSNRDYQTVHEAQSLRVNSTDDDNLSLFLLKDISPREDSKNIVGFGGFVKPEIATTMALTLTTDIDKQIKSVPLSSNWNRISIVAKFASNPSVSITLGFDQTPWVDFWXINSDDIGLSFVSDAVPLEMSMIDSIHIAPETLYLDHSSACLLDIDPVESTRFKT
The data set can be described thus: cleavage_in_vitro. As to conditions: supernatant of lysate assayed on lambda DNA; purified enzyme also assayed on lambda DNA.

Data set [2] concerns T2, SapI M2 methylase (Saccharopolyspora sp.).
T2 sequence: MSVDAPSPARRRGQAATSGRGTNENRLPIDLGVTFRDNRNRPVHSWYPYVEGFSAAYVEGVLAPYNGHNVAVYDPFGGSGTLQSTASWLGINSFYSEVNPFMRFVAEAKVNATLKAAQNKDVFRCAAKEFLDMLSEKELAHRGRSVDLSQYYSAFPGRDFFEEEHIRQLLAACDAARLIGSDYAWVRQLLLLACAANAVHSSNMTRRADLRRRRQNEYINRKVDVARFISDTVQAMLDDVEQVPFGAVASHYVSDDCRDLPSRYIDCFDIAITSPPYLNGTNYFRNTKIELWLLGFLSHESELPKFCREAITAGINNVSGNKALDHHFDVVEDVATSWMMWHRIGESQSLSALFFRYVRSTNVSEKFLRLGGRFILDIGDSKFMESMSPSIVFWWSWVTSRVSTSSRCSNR
The data set can be described thus: cell_activity. As to conditions: M1 and M2 co-expressed in E. coli from pACYC184-SapIM1-M2; SapI site protection.

Data set [3] concerns T3, SapI M1 methylase (Saccharopolyspora sp.).
T3 sequence: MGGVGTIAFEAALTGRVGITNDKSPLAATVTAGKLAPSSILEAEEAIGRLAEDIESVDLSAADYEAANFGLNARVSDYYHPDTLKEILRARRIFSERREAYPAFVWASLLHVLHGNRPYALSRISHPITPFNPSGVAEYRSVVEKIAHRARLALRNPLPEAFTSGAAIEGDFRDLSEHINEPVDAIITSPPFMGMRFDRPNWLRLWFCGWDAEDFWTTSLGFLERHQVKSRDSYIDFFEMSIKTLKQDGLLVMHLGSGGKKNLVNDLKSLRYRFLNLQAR
Kind of data set: cell_activity. To be noted: M1 and M2 co-expressed in E. coli from pACYC184-SapIM1-M2; SapI site protection.

On to lambda DNA, for which, in data set [1], the activity (units per g wet cells) was determined as 20000.
Turning to pUC19 plasmid DNA (one SapI site), the activity (% of DNA resistant to SapI) in data set [2] and in data set [3] was 70 in each case.
